# Test results: publication PMC7470980, “Mechanism of translation inhibition by type II GNAT toxin AtaT2” (Nucleic Acids Research, 2020)
# B1: AtaR2 antitoxin (natural protein)
# chain: MKPESKEAPINIRAKASQRDLIDMAANLVAKSRTDFMLDAACREAQDILLDQRLFILDDEQYDAFLAALDAPITAERQAKINALMNRKSPWE
# B2: AtaT2 toxin (enzyme)
# chain: MGITAPTPLTSEHNLADFCCSDHGMNEWLKKKALKNHSSGLSRVYVICIANTRQVIGYYCLSTGSIQRNLAPGAMRRNAPESLPVVVLGRLAIDQAWAGKGLGVALLKDAVYRTMSIAQQVGVRALIVHALDDSVRNFYLKYAFVPSPFQSLTLLYPITLE
# Legend:
# [1] = molecular target: the molecule itself; assay: SEC; […]; 10 mM Tris-HCl pH 8.0, 150 mM NaCl; 0.2 ml/min; […]
# SEC = molecular target: the molecule itself; assay: SEC
protein,measurement,setting,value
B1,stoichiometry N,[1],4
B2,stoichiometry N,SEC,2
